Measurements as given in US20260152559A1 (Janssen / Centocor, published 2026).
Positions count from the first letter of the chain named.

B1: CAR1 (HL_HCG5_LCD6_20AA) (other)
chain: QVQLQESGPGLVKPSDTLSLTCAVSGNSITSDYAWNWIRQFPGKGLEWMGYISYSGSTTYNPSLKSRVTISRDTSKNQFSLKLSSVTPVDTAVYYCATGYYYGSGFWGQGTLVTVSSGGSEGKSSGSGSESKSTGGSDIVLTQSPDSLAVSLGERATINCKASESVEYFGTSLMHWYQQKPGQPPKLLIYAASNRESGVPDRFSGSGSGTDFTLTIQSVQAEDVSVYFCQQTRKVPYTFGQGTKLEIKTSTPAPRPPTPAPTIASQPLSLRPEACRPAAGGAVHTRGLDFACDIYIWAPLAGTCGVLLLSLVITLYCKRGRKKLLYIFKQPFMRPVQTTQEEDGCSCRFPEEEEGGCELRVKFSRSADAPAYKQGQNQLYNELNLGRREEYDVLDKRRGRDPEMGGKPRRKNPQEGLYNELQKDKMAEAYSEIGMKGERRRGKGHDGLYQGLSTATKDTYDALHMQALPPR
notes: Chimeric antigen receptor (scFv, CD8a hinge and transmembrane region, 4-1BB and CD3-zeta domains) on JNL cells or primary human T cells; also called hK2 CAR; pDR000083431
B2: CAR2 (HL_HCG5_LCHumanized_20AA) (other)
chain: B1 chain with Q217S, V219L, S225A, F228Y
notes: Chimeric antigen receptor on JNL cells or primary human T cells; also called hK2 CAR; pDR000083432
B3: CAR13 (HL_HCHumanized_LCHumanized_20AA) (other)
chain: B1 chain with F41P, M49I, I70M, P88A, Q217S, V219L, S225A, F228Y
notes: Chimeric antigen receptor with the hu11B6 scFv in VH-linker-VL order, on JNL cells or primary human T cells; also called 11B6_HL; parental 11B6 CAR HL
B4: CAR6 (LH_LCHumanized_HCF3_20AA) (other)
chain: DIVLTQSPDSLAVSLGERATINCKASESVEYFGTSLMHWYQQKPGQPPKLLIYAASNRESGVPDRFSGSGSGTDFTLTISSLQAEDVAVYYCQQTRKVPYTFGQGTKLEIKGGSEGKSSGSGSESKSTGGSQVQLQESGPGLVKPSDTLSLTCAVSGNSITSDYAWNWIRQFPGKGLEWIGYISYSGSTTYNPSLKSRVTISRDTSKNQFSLKLSSVTPVDTAVYYCATGYYYGSGFWGQGTLVTVSSTSTPAPRPPTPAPTIASQPLSLRPEACRPAAGGAVHTRGLDFACDIYIWAPLAGTCGVLLLSLVITLYCKRGRKKLLYIFKQPFMRPVQTTQEEDGCSCRFPEEEEGGCELRVKFSRSADAPAYKQGQNQLYNELNLGRREEYDVLDKRRGRDPEMGGKPRRKNPQEGLYNELQKDKMAEAYSEIGMKGERRRGKGHDGLYQGLSTATKDTYDALHMQALPPR
notes: Chimeric antigen receptor on JNL cells or primary human T cells; also called hK2 CAR; pDR000083440
B5: CAR7 (LH_LCHumanized_HCG5_20AA) (other)
chain: B4 chain with I180M
notes: Chimeric antigen receptor on JNL cells or primary human T cells; also called hK2 CAR; pDR000083441
B6: CAR15 (LH_LCHumanized_HCHumanized_20AA) (other)
chain: B4 chain with F172P, I201M, P219A
notes: Chimeric antigen receptor with the hu11B6 scFv in VL-linker-VH order, on JNL cells or primary human T cells; also called 11B6_LH; parental 11B6 CAR LH
B7: CAR4 (HL_HCG5_LCB7_20AA) (other)
chain: B1 chain with Q217S, S225A, F228Y
notes: Chimeric antigen receptor on JNL cells or primary human T cells; also called hK2 CAR; pDR000083437
B8: CAR3 (HL_HCF3_LCB7_20AA) (other)
chain: B1 chain with M49I, Q217S, S225A, F228Y
notes: Chimeric antigen receptor on JNL cells or primary human T cells; also called hK2 CAR; pDR000083436
B9: KL2B494 (Fab) (Fab, V domains shown)
VH: QVQLVESGGGLVQPGGSLRLSCAASGFTFSHYAMSWVRQAPGKGLEWVSTIGGSGGSTYYADSVKGRFTISRDNSKNTLYLQMNSLRAEDTAVYYCAKPHIVMVTALLYDGMDVWGQGTMVTVSS
VL: SSELTQPPSVSVAPGQTARITCGGNNIGSKSVHWYQQKPGQAPVLVVYDDSDRPSGIPERFSGSNSGNTATLTISRVEAGDEADYYCQVWDSSSDHVVFGGGTKLTVL
B10: KL2B413 (scFv-LH-Fc) (Fc fusion)
chain: EIVLTQSPSFLSASVGDRVTITCRASQGISSYLSWYQQKPGKAPKLLIYATSTLQSGVPSRFSGSGSGTEFTLTISSLQPEDFATYYCQQLNSYPRTFGQGTKVEIKGGSEGKSSGSGSESKSTGGSEVQLVESGGGLVQPGGSLRLSCAASGFTFSSYWMTWVRQAPGKGLEWVANIKQDGSERYYVDSVKGRFTISRDNAKNSLYLQMNSLRAEDTAVYYCARDQNYDILTGHYGMDVWGQGTTVTVSSEPKSSDKTHTCPPCPAPEAAGGPSVFLFPPKPKDTLMISRTPEVTCVVVSVSHEDPEVKFNWYVDGVEVHNAKTKPREEQYNSTYRVVSVLTVLHQDWLNGKEYKCKVSNKALPAPIEKTISKAKGQPREPQVYVLPPSREEMTKNQVSLLCLVKGFYPSDIAVEWESNGQPENNYLTWPPVLDSDGSFFLYSKLTVDKSRWQQGNVFSCSVMHEALHNHYTQKSLSLSPG
notes: also called KL2B413-LH-scFv-Fc
B11: KL2B359 (scFv-LH-Fc) (Fc fusion)
chain: EIVLTQSPATLSLSPGERATLSCRASESVEYFGTSLMHWYQQKPGQPPRLLIYAASNVESGIPARFSGSGSGTDFTLTISSVEPEDFAVYFCQQTRKVPYTFGGGTKVEIKGGSEGKSSGSGSESKSTGGSQVQLQESGPGLVKPSQTLSLTCTVSGNSITSDYAWNWIRQFPGKRLEWIGYISYSGSTTYNPSLKSRVTISRDTSKNQFSLKLSSVTAADTAVYYCATGYYYGSGFWGQGTLVTVSSEPKSSDKTHTCPPCPAPEAAGGPSVFLFPPKPKDTLMISRTPEVTCVVVSVSHEDPEVKFNWYVDGVEVHNAKTKPREEQYNSTYRVVSVLTVLHQDWLNGKEYKCKVSNKALPAPIEKTISKAKGQPREPQVYVLPPSREEMTKNQVSLLCLVKGFYPSDIAVEWESNGQPENNYLTWPPVLDSDGSFFLYSKLTVDKSRWQQGNVFSCSVMHEALHNHYTQKSLSLSPG
notes: also called KL2B359-LH-scFv-Fc
B12: KL2B30 (Fab) (Fab, V domains shown)
VH: QVQLQESGPGLVKPSETLSLTCTVSGGSISSYYWSWIRQPPGKGLEWIGYIYYSGSTNYNPSLKSRVTISVDTSKNQFSLKLSSVTAADTAVYYCAGTTIFGVVTPNFYYGMDVWGQGTTVTVSS
VL: DIQMTQSPSFLSASVGDRVTITCRASQGISSYLAWYQQKPGKAPKFLIYAASTLQSGVPSRFSGSGSGTEFTLTISSLQPEDFATYYCQQLNSYPLTFGGGTKVEIK
B13: KL2B242 (Fab) (Fab, V domains shown)
VH: QVQLQESGPGLVKPSETLSLTCTVSGGSISSYYWSWLRQPAGSGLEWIGRLYVSGFTNYNPSLKSRVTLSLDPSRNQLSLKLSSVTAADTAVYYCAGDSGNYWGWFDPWGQGTLVTVSS
VL: SYELTQPPSVSVSPGETASITCSGDQLGENYACWYQQKPGQSPVLVIYQDSKRPSGIPERFSGSNSGNTATLTISGTQALDEADYYCQAWDNSIVVFGGGTKLTVL
B14: KL2B53 (Fab) (Fab, V domains shown)
VH: EVQLVESGGGVVQPGRSLRLSCVASGFTFSSYDIHWVRQAPGKGLEWVAIISYDGSKKDYTDSVKGRFTISRDNSKNTLYLQMDSLRVEDSAVYSCARESGWSHYYYYGMDVWGQGTMVTVSS
VL: DIVMTQSPSSLSASVGDRVTITCRASQDISNYLAWYQQKPGKVPKFLIYAASTLHSGVPSRFSGSGSGTDFTLTISSLQPEDVATYYCQKYNSAPYTFGQGTRLEIK
B15: KL2B467 (Fab) (Fab, V domains shown)
VH: QVQLVESGGGVVQPGRSLRLSCAASGFTFSYYGMHWVRQAPGKGLEWVAFISYDGSNKYYADSVKGRFTISRDNSKNTLYLQMNSLRAEDTAVYYCAHLPYSGSYWAFDYWGQGTQVTVSS
VL: QSVLTQPPSVSVAPGQTASITCGGDNIGSKSVHWYQQKPGQAPVLVVYDNSDRPSGIPERFSGSNSGTTATLTISRVEAGDEADYYCQVWDSSSDHPVVFGGGTKVTV

What follows are binders tested against T1, kallikrein related peptidase 2 (hK2), soluble (human, UniProt P20151 19-261, biotin label in the CAR staining assays (site not stated)) (assay: flow cytometry, primary human T cells transduced with the CAR lentivirus (MOI 3), biotinylated hK2 (1 ug/ml) then streptavidin-PE, 14 days after transduction; UTD gate 0.086).
T1 construct: also called KLK2; human KLK2 protein
T1 sequence (P20151 19-261): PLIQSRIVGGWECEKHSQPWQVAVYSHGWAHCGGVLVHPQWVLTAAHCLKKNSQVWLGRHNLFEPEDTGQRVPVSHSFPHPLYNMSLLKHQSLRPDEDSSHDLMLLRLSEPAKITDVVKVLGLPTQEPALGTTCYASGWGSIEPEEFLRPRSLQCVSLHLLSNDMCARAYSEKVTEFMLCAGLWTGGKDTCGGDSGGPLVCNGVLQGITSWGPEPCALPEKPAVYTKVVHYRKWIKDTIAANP

Binder	% of cells in the hK2CAR+ CD3+ gate
B1	20%
B2	23.6%
B3	6.12%
B4	27.8%
B5	35%
B6	22.6%

The binders below were run against T1, kallikrein related peptidase 2 (hK2), … (assay: flow cytometry, primary human T cells transduced with the CAR lentivirus (MOI 3), biotinylated hK2 (1 ug/ml) then streptavidin-PE, 14 days after transduction; UTD gate 0.086 [contd]).

Binder	% of cells in the hK2CAR+ CD3+ gate
B7	42.7%
B8	29.4%

Each binder was assayed against T1, kallikrein related peptidase 2 (hK2), … (assay: SPR; antibody captured on anti-Fc sensor chip, soluble hK2 injected; 1:1 Langmuir fit, KD = koff/kon).
Procedure: Affinity of selected hK2 antibodies for soluble hK2 was measured by surface plasmon resonance (SPR). […] Antibodies were captured on a sensor chip coated with an anti-Fc antibody followed by injection of soluble hK2 at various concentrations and specified association and dissociation times. Post dissociation, the surface was regenerated with an appropriate solution to prepare for the next interaction. Kinetic information (on-rate and off-rate constants) were extracted by fitting sensorgrams to the 1:1 Langmuir model. Binding affinity (KD) are reported as the ratio of rate constants (koff/kₒₙ).

Binder	Kd
B9	0.053 nM
B10	34.3 nM
B11	0.7 to 1 nM
B12	0.46 nM
B13	0.04 nM
B14	0.08 nM
B15	0.078 nM
